This series in a line: soluble on expression in E. coli; label from the status in PepcDB or PDB records.
As to “GPGSMAPLPRKALLAITSAHPPFWPDGKRTGLFFSEALHPFNELTAAGFEVDVASETGTFGWDEHSLTQEYLSKEDEKVLHSEHNHFMEKMNKQVFKAGDLAPHDYGLMFVCGGHGALYDFPHAKHLQNIAQDIYKRGGVIGAVCHGPAMLPGIHDENGDSVIKDKTVTGFTTKGEIMIKVIDKMREDHLHTIADMAQTANAEYVPPEDPWDDFCKVDGRIVTGANPQSATNTARDTIKVYEGIVNE”, the “soluble on expression in E. coli” value is listed as “soluble”.
“MSSGNIHIHSMTGFANAAAECGSKRINLDLRAVNHRFLDIQIRMPDDLRYLESGIREKISSHIARGKVECKIQIQDAENGSQSLELNRDLVGQLAEINKDLRKHHDLAKLGVADILRFPGVLASQRENTEELAKSITELTEKALKDFTAARKREGKKLGEHLLQRLEAMEEIIDALSELFPTLLETHKEKIRARLVEAVGSIDNDRLQQEFALFIQKSDIDEEFSRLRTHIAEVRRIVTEHKGSSGKRLDFLMQELNREANTLGSKSIAAECTQASVELKVLIEQMREQVQNIE”: the “soluble on expression in E. coli” value is on record as “not soluble”.
As to “MGHHHHHHSHMLLPRGLDIKQEELGDLVDKEMAATSAAIETATARIEEMLSKSRAGDTGVKLEVNERILGCCTSLMQAIQVLIVASKDLQREIVESGRGTASPKEFYAKNSRWTEGLISASKAVGWGATVMVDAADLVVQGRGKFEELMVCSHEIAASTAQLVAASKVKADKDSPNLAQLQQASRGVNQATAGVVASTISGKSQIEETDNMDFSSMTLTQI”, the “soluble on expression in E. coli” value is “soluble”.
For the sequence “MTATITNKKSCSGSVEAGKTRLTTEWKPESQVPQYVKNELSKPHPNYILAFLNVVQQLKIQRRTGYLDLGIKECESISDHMYRLSIITMLIKDSRVNRDKCVRIALVHDIAESLVGDITPVDPIGKEEKHRREWETIKYLCNALIKPYNEIAAKEIMDDWLAYENVTSLEARYVKDIDKYEMLVQCFEYEREYKGTKNFDDFFGAVASIKTDEVKGWTSDLVVQRQKYFADLTQSITK”, the “soluble on expression in E. coli” value was “soluble”.
Regarding “MSLRAGVTGGPQIITKVITMIKFVLDTSIFVNPDVRKKFGETPTEAMKTFLHYAENLFGKVEFYMPPGIYRELMHFVEEEEVSPDIELYIIKKPPNVHDIKIPAFVVYELIEDIRRRVDKGLRVAEKAVRESVIDTSNVDKIIQKLRRNYRKALREGILDSKEDFELILLAKEIDGIIVSADVGILTWAEKMGIKWVDAFKFKEVLSELVEKFKRSESEKERKEGHHHHHH”, the “soluble on expression in E. coli” value is “not soluble”.
For “MTRQMILAVGQQGPIARAETREQVVGRLLDMLTNAASRGVNFIVFPELALTTFFPRWHFTDEAELDSFYETEMPGPVVRPLFETAAELGIGFNLGYAELVVEGGVKRRFNTSILVDKSGKIVGKYRKIHLPGHKEYEAYRPFQHLEKRYFEPGDLGFPVYDVDAAKMGMFICNDRRWPETWRVMGLKGAEIICGGYNTPTHNPPVPQHDHLTSFHHLLSMQAGSYQNGAWSAAAGKVGMEEGCMLLGHSCIVAPTGEIVALTTTLEDEVITAALDLDRCRELREHIFNFKAHRQPQHYGLICEF” the value was “soluble”; for “MALVRFSPLYEFDRELGTLQRQMSRFLQPWPWTEAELKELSFAPAVEVKETDAAIELRVELPGIDPKDLDLQVTAEAVVLKGERRSEDRSEAEGVLRTEFRYGAFERVIPLPAQVKNTEAQADYQNGILVLTLPKRDEELHKVVKVDLGHLAAAPVAAEACERLEHHHHHH”, “soluble”.
For the sequence “MSMLPTFGFTQEQVACVCEVLQQGGNIERLGRFLWSLPACEHLHKNESVLKAKAVVAFHRGNFRELYKILESHQFSPHNHAKLQQLWLKAHYIEAEKLRGRPLGAVGKYRVRRKFPLPRSIWDGEETSYCFKEKSRSVLREWYAHNPYPSPREKRELTEATGLTTTQVSNWFKNRRQRDRAAEAKERENNENSNSNSHNPLNGSGKSVLGSSEDEKTPSGTPDHSSSSPALLLSPPPPGLPSLHSLGHPPGPSAVPVPVPGGGGADPLQHHHGLQDSILNPMSANLVDLGS”, the “soluble on expression in E. coli” value is recorded as “soluble”.
In the case of “MSEGWNIAILGATGAVGEALLETLAERQFPVGEIYALARHESAGEHLRFGGKSVIVQDAADFDWTQAQLAFFVAGAEASAAWIDDATNAGCLVIDSSGLFALEPDVPLVVPEVNPYVLADYRNRNVIAVADSLTSQLLAALKPLIDQGGLSRIAVTSMLSASAQGKKAVDALAGQSAKLLNGIPIDEDDFFGRQLAFNMLPLLPDREGSVRQERRIVDEVRKILQDDGVMISASVVQSPVFYGHAQMVSFEALRPLAAEEAREAFSRGEDIVLSEETDYPTQVGDASGNPQLSIGCVHNDYGMPEQIQFWSVADNVRFGGALMAVKIAEKLVQEYLY”, the “soluble on expression in E. coli” value was “not soluble”.
For “IDKIENYEQSTSQLREEIKTLYNEVIDIGKKLSQERRRVARELRDHIVSEIQNLQMKDANLEISFKPLDEPTIEGIEFVEFLISPNRGEPLKSLNKIASGGELSRIMLALKSIFVKSRGQTAILFDEVDSGVSGQAAQKMAEKMRDIAQYIQVICISHLPQVASMSDHHLLISKASNADRTTTQVKELKDENKIDEIARMISGASVTELTRENAKEMIKQNHNI”, the “soluble on expression in E. coli” value was “not soluble”.
“MDFECQFVCELKELAPVPALLIRTQTTMSELGSLFEAGYHDILQLLAGQGKSPSGPPFARYFGMSAGTFEVEFGFPVEGGVEGSGRVVTGLTPSGKAASSLYIGPYGEIEAVYDALMKWVDDNGFDLSGEAYEIYLDNPLEHHHHHH”: the “soluble on expression in E. coli” value is reported as “not soluble”.
For “MSLRINLTSEKTLKEASTSMAPNVLKGNVIKNKAVASGKYVPFFGSSELSRFSAFHPSVLSEKYQRNYRPFLLGEAGTQSLTQAMVIHSMGDAIANKKAVFILSPQWFVKKGVPNDSFGAHYSQLQTYQWLANLTELTSGDQYLAQRLTKFPVVQKDKVLMETLANLQAGQLPQRSQRDYFIMNLRFLNREDELFSQIGMVSREPIVEKDMKQLPATYNFNELDQLAGKIAAKAINNNKFEISNGFYRQRIKPVLPKLAHSQKKWDYRFSPEYGDFQAALEQLAEKNVDVLFVIPPVNKRWSDYTGLSQDMLQQVARKLKYQLQEQGFTNIADFSTCSNERYFMADTIHLGWRGWLAVDRQVDEFMKQPASKKLAYQIDDRFYQTDWQQQNPLVLPQFEGHHHHHH” the value was “soluble”; for “MEASKDISRLIEIMEALRQPETGCPWDVVQTFETIKPYTIEEAYEVADAIERKDMDDLCDELGDLLLQVVFHARIAEERGEFTFGDVVHAVTSKMIRRHPHVFDVSDADTPDSVKLQWDQIKAEEKRERAERRARRGITEDFKAGFLGGVQRSQPALTEALKLQEQAARVGFDWSDPAPILDKIEEEIAELREALAEGKPEKVSDELGDLIFALVNIGRHVKADPEDALRGTNTKFRRRFNHIETSLSDNGETLKEASLERMEDLWQAAKRIERSLDTVSS”, “not soluble”.
Take “MSVIIVGGGMAGATLALAISRLSHGALPVHLIEATAPESHAHPGFDGRAIALAAGTCQQLARIGVWQSLADCATAITTVHVSDRGHAGFVTLAAEDYQLAALGQVVELHNVGQRLFALLRKAPGVMLHCPDRVANVARTQSHVEVTLESGEMLTGRVLIAADGTHSALATACGVDWQQEPYEQLAVIANVATSVAHEGRAFERFTQHGPLAMLPMSDGRCSLVWCHPLERREEVLSWSDEKFCRELQSAFGWRLGQITHAGKRSAYPLALTRAARPITHRTVLVGNAAQTLHPIAGQGFNLGMRDVMSLAETLTQAHERGEDIGDYGILCRYQQRRQSDREATIGVTDSLVHLFANRWAPLVVGRNIGLMTMELFTPARDVLAQRTLGWVARLEHHHHHH”: the “soluble on expression in E. coli” value is listed as “soluble”.
On to “MKNIYVETYGCALNRADTYVMMTLLKSEGYNFVENPENADIIILNTCAVRLETEERMKQRIKELNTLSKKLVVAGCMSSAEPATVLSIAPNASLIGPQSVERIVDIVKSEERKIVIEGDRALITPRTFDGKIAIIPVADGCAGNCSFCITKLARRKLRSYPLREIVNAARDAIQSGAREIELTGQDTAAYGLDLGGSISLVDVVNKVADIDGDFMIRIGMMTPEQAMRIMDDLIEAIRNPKVYKFIHLPVQSGDDRVLKLMNRKYTVDEYKELISEIRHKIPFVNITTDIIVGHPGEDEEAFNNTLLLMKELRFERIHLAMYSIRPNTRSASMPQVPDSIKKKRIQIANKLYEDLALSIHLDYVGSTSRVITTELGRKGSVIGRLMNYIPVVIRSENVELGKWYDVKITEASFYDLRGILALEHHHHHH”, for which the “soluble on expression in E. coli” value was “soluble”.
For “MLRIGLTGGIGAGKSLLSTTFSQCGGIVVDGDVLAREVVQPGTEGLASLVDAFGRDILLADGALDRQALAAKAFRDDESRGVLNGIVHPLVARRRSEIIAAVSGDAVVVEDIPLLVESGMAPLFPLVVVVHADVELRVRRLVEQRGMAEADARARIAAQASDQQRRAVADVWLDNSGSPEDLVRRARDVWNTRVQPFAHNLAQRQIARAPARLVPADPSWPDQARRIVNRLKIACGHKALRVDHIGSTAVSGFPDFLAKDVIDIQVTVESLDVADELAEPLLAAGYPRLEHITQDTEKTDARSTVGRYDHTDSAALWHKRVHASADPGRPTNVHLRVHGWPNQQFALLFVDWLAANPGAREDYLTVKCDADRRADGELARYVTAKEPWFLDAYQRAWEWADAVHWRP”, the “soluble on expression in E. coli” value is listed as “soluble”.
“MGSDKIHHHHHHMTISQQAVLAATAITKTFGAHVALHTIDIAFRPGEVHALLGENGAGKSTLIKILTGAYTPDAGTVLVDGAPMSFSTPQQAQAAGIGTVYQEVNLLTNMTVADNLFIGRQPRRFGLVDHRTMEREARRILSGYGLDIDVRAELATFSVAVQQIIAIARAVELSGKVLILDEPTASLDRSEVLKLFEIVRGLKARGLAIVFITHFLDQVFELCDHATVLRNGKLVGSQPIDTLNRTTLVRMMLGKDLSLHHDAVAGIEAEVGESLMQFTGYGLDGKVQPFTLTIHKGEVIGVAGLLGSGRTEMARLMFGIDSADKGELTLNGASFKIRSPRQAIDLGFGFCPEDRKADGIFGDLSVRENIIIAMQAKLGWLRTLSYDEQMEIAGQFIEALDIRTASAELPIKLLSGGNQQKAILARWLATDPRFLILDEPTRGIDVGAHAEIVRMISRLREDGLALIVISSELDEVVSYSSRIVVMRDRAMVAELHGADIAPDVIVQTIAAQSNTPAQSEGAFS”: the “soluble on expression in E. coli” value is on record as “not soluble”.
As for “MSLTVWKTLEKTNHSQSEILSQLIEESDAIVVGIGAGMSAADGFTYIGPRFEEAFPDFIAKYQLLDMLQASLYDFEDWEEYWAFQSRFVALNYLDQPVGQAYLDLKDILAKKEYHIITTNADNAFAVADYNLEKVFHIQGEYGLWQCSQHCHQQTYRNDQAIRQMIAQQKDMKIPSNLIPKCPKCDQPFEINKRNEEKGMVEDADFHAQRQRYENFLSQHQNDKVLYLEIGVGHTTPQFIKHPFWRFVSLNENSLFVTLNHKHYRIPQKIRSRSVQLTQHIAELIAEAKKEIIGEGHHHHHH”, the “soluble on expression in E. coli” value is listed as “soluble”.
For “MSLGAKKEGFQTMVITDNKRENFYKNFSFIDNIYAYASLDEAVSIINGIKDYGILIPHGSLVEYLGKERVDKIETKIFGNKKIFEWEADQKKKMELLRKSNIKIPEIFERPEDVDRLVIVKLNGAKGGKGYFLARNKSEVKEGIQKLIESKMIRDENEVIIQEYVVGVPMYFQFFYSDIINRTEIFGIDIRYETNIDGLRRLPFEYMKELKINPTFVVVGNIPAVARESLLPVALEYANNFVRTTKELVPPGMIGPFCLESIITDNSDIVVFEFSGRIVAGTNLYVNGSPYSWLYWDEPMSIGRRIAREIRVANEKDKLSLVVSEGHHHHHH” the value was “not soluble”; for “MDTSLIRELAELALAGSGQHCHEEALCIAEWLERLGQDEAARLIRISSLANQGRYQEALAFAHGNPWPALEPWFALCEWHLGLGAALDRRLAGLGGSSDPALADFAAGMRAQVRT”, “soluble”.

Source of the values: the DeepSol protein solubility set.
